Measured values published in article PMC6472409, “Dishevelled-3 conformation dynamics analyzed by FRET-based biosensors reveals a key role of casein kinase 1” (Nature Communications, 2019).

What was measured:
Wnt/β-catenin pathway = assay: Dual Luciferase TopFlash/Renilla Reporter Assay; type: cell-based, human; settings: for TopFlash relative to ctrl (= 1): Suppl. Fig. 2a; for TopFlash FlAsH III (CK1e-/-), relative to ctrl (= 1): Suppl. Fig. 4f; for TopFlash FlAsH III (CK1e-/-), relative to ctrl (= 1) / TopFlash in CK1e-/- relative to CK1e wt (= 1): CK1e-/- cells; for TopFlash relative to DVL3 wt (= 1) / TopFlash in CK1e-/- relative to CK1e wt (= 1): Fig 8d
Method: Cells were transfected 24 h after seeding with 0.1 μg of Super8X TopFlash construct, 0.1 μg of Renilla luciferase construct, and 0.1 μg of corresponding plasmids per well for 6 h in a 24-well plate. As for the ECFP-DVL3 FIII wt stable cell lines, transfection was followed by 4 h induction of tetracycline (1 µg/ml) and 8 h treatment of CM:DMEM (1:1 ratio). For performing this assay, Promega Dual Luciferase assay kit (Promega, #E1910) was used according to the manufacturer’s instructions. Luminescence was measured by a Hidex Bioscan Plate Chameleon Luminometer. Results are depicted as the ratio of TopFlash and Renilla signal (TopFlash fold induction), which was normalized for each experiment to certain control column (normalized TopFlash fold induction). Data were analyzed by MS Excel 2007 and GraphPad Prism 6 and results were shown as the means ± S.D. (number of experiments indicated ad hoc).

[1] = tested on: DVL3 membrane recruitment by FZD6 in HEK293 cells; assay: FZD6-dependent membrane recruitment of DVL3, immunofluorescence; type: cell-based, human; design: key to Non-recruited (DVL3 membrane recruitment): number of cells out of 100 positive cells scored; settings: Fig 8c
Description: First, we analyzed the preferred subcellular localization of DVL3 (as introduced in Fig. 2c)[10],[14]. […] Next, we investigated if DVL3 conformation correlates with the capacity of DVL3 to be recruited by FZD6, a key Wnt receptor, to the plasma membrane. For this purpose, we co-expressed FZD6 and analyzed membrane recruitment of DVL3 in FZD6-positive cells by immunofluorescence. Individual cells were categorized as: not recruited (Fig. 8b, no DVL3 in the membrane), partially recruited (clear membrane as well as cytoplasmic localization), and fully recruited (predominantly plasma membrane localization, Fig. 8c, left). […] In the last readout we analyzed the capacity of DVL3 to activate downstream Wnt/β-catenin pathway monitored by TopFlash reporter assay (Fig. 8d). […] On the other hand, under conditions that favor the open conformation both activation as well as inhibition of the Wnt/β-catenin pathway was evident.
For immunofluorescence, cells were seeded (40,000 per well) on 24-well plates with gelatin-coated coverslips and transfected, as indicated, with 0.1 μg of each corresponding plasmid (0.3 μg of mCherry-FZD6) for 6 h. For western blotting and Dual Luciferase TopFlash/Renilla Reporter Assay, cells were seeded (60,000 per well) directly on 24-well plates with 0.1 μg of each corresponding plasmid (if not indicated otherwise) for 6 h. For coimmunoprecipitation, cells were seeded (4.4 × 10^6) on 10-cm dishes and transfected with 1 μg of each corresponding plasmid. The next day after seeding, cells were transfected using polyethyleneimine (PEI) in a stoichiometry of 6 μl of PEI per 1 μg of DNA for 6 h and were harvested 24 h after transfection. The following plasmids used in HEK293 cells have been described previously: FLAG-DVL3 wt[47], CK1ϵ wt[48], mCherry-FZD6 (ref. [37]), and dominant-negative CK1ϵ P3 (ref. [33]). The ECFP-DVL3 wt plasmid was made by Gateway Technology (via LR recombination according to the manufacturer’s instructions; Thermo Fisher Scientific, #11791020) from the donor plasmid pDONR221 DVL3 (DNASU, #FLH178665.01x) and the destination plasmid pdECFP (LMBP, #4548). The HA-DVL3 wt plasmid was made by Gateway Technology from the donor plasmid pDONR221 DVL3 (DNASU, #FLH178665.01x) and the destination plasmid pcDNA3.1 N-term HA (gift from Erich Nigg).
Cells were seeded on gelatin-coated coverslips in 24-well plates and were transfected the next day. Cells were fixed 24 h later in fresh 4% paraformaldehyde, permeabilized with 0.5% Triton X-100, blocked with PBS/BSA/Triton/Azide buffer (PBTA) [3% (wt/vol) BSA, 0.25% Triton, 0.01% NaN3] for 1 h, and incubated overnight with primary antibodies (in dilution 1:500) in PBTA at 4 °C. The next day, the coverslips were washed in PBS and incubated with secondary antibodies conjugated to Alexa Fluor 488 (Invitrogen A11001) or/and Alexa Fluor 594 (Invitrogen A11058) (all in dilution 1:1000), washed with PBS [in case of samples containing FLAG-DVL3 WT and derived variants stained with DAPI (1:5000)], and all coverslips were mounted on microscopic slides. Cells were then visualized on an Olympus IX51 fluorescent microscope using ×40 air or ×100 oil objectives and/or an Olympus Fluoview 500 confocal laser scanning microscope IX71 using ×100 oil objective. One hundred positive cells per experiment (n = 3) were analyzed and scored according to their phenotype into two/three categories (punctae/even); or non-recruited/partially/fully recruited for FZD6-dependent recruitment of DVL3. The antibodies used were as follows: anti-FLAG M2 (Sigma-Aldrich, #F1804), anti-DVL3 (Santa Cruz, #sc-8027), anti-CK1ɛ (Santa Cruz, #sc-6471), anti-RFP (Chromotek, #5h9) and anti-GFP (Fitzgerald, #20R-GR-011).

[2] = sensor FlAsH III, replicate of grid row r5
[3] = sensor FlAsH III, replicate of grid row r6
[4] = sensor FlAsH III, replicate of grid row r7
[5] = panel of CK1e-/- comparison, wt cells, exp1
[6] = panel of CK1e-/- comparison, wt cells, exp3

CK1e
TopFlash relative to ctrl (= 1) (Wnt/β-catenin pathway; sensor FlAsH I, replicate of grid row r5): 1.477 | TopFlash relative to ctrl (= 1) (Wnt/β-catenin pathway; sensor FlAsH I, replicate of grid row r6): 1.51 | TopFlash relative to ctrl (= 1) (Wnt/β-catenin pathway; sensor FlAsH I, replicate of grid row r7): 1.233 | TopFlash relative to ctrl (= 1) (Wnt/β-catenin pathway; sensor FlAsH II, replicate of grid row r5): 1.907 | TopFlash relative to ctrl (= 1) (Wnt/β-catenin pathway; sensor FlAsH II, replicate of grid row r6): 2.332 | TopFlash relative to ctrl (= 1) (Wnt/β-catenin pathway; sensor FlAsH II, replicate of grid row r7): 1.874 | TopFlash relative to ctrl (= 1) (Wnt/β-catenin pathway; [2]): 2.614 | TopFlash relative to ctrl (= 1) (Wnt/β-catenin pathway; [3]): 1.858 | TopFlash relative to ctrl (= 1) (Wnt/β-catenin pathway; [4]): 2.849 | TopFlash relative to ctrl (= 1) (Wnt/β-catenin pathway; sensor FlAsH IV, replicate of grid row r5): 3.481 | TopFlash relative to ctrl (= 1) (Wnt/β-catenin pathway; sensor FlAsH IV, replicate of grid row r6): 2.7 | TopFlash relative to ctrl (= 1) (Wnt/β-catenin pathway; sensor FlAsH IV, replicate of grid row r7): 1.4298 | TopFlash FlAsH III (CK1e-/-), relative to ctrl (= 1) (Wnt/β-catenin pathway; [2]): 2.409 | TopFlash FlAsH III (CK1e-/-), relative to ctrl (= 1) (Wnt/β-catenin pathway; [3]): 2.306 | TopFlash FlAsH III (CK1e-/-), relative to ctrl (= 1) (Wnt/β-catenin pathway; [4]): 3.0297

Ck1e
Fully recruited (DVL3 membrane recruitment) ([1]; exp1): 8 | Non-recruited (DVL3 membrane recruitment) ([1]; exp1): 58 | Partially recruited (DVL3 membrane recruitment) ([1]; exp1): 34 | Fully recruited (DVL3 membrane recruitment) ([1]; exp2): 43 | Non-recruited (DVL3 membrane recruitment) ([1]; exp2): 27 | Partially recruited (DVL3 membrane recruitment) ([1]; exp2): 30 | Fully recruited (DVL3 membrane recruitment) ([1]; exp3): 15 | Non-recruited (DVL3 membrane recruitment) ([1]; exp3): 63 | Partially recruited (DVL3 membrane recruitment) ([1]; exp3): 22 | TopFlash relative to DVL3 wt (= 1) (Wnt/β-catenin pathway; replicate of grid row r4): 2.8 | TopFlash relative to DVL3 wt (= 1) (Wnt/β-catenin pathway; replicate of grid row r5): 2.5 | TopFlash relative to DVL3 wt (= 1) (Wnt/β-catenin pathway; replicate of grid row r6): 1.85

B1: DVL3 wt (protein, UniProt Q92997 1-716, looked up)
Segment polarity protein …: MGETKIIYHLDGQETPYLVKLPLPAERVTLADFKGVLQRPSYKFFFKSMDDDFGVVKEEISDDNAKLPCFNGRVVSWLVSAEGSHPDPAPFCADNPSELPPPMERTGGIGDSRPPSFHPHAGGGSQENLDNDTETDSLVSAQRERPRRRDGPEHATRLNGTAKGERRREPGGYDSSSTLMSSELETTSFFDSDEDDSTSRFSSSTEQSSASRLMRRHKRRRRKQKVSRIERSSSFSSITDSTMSLNIITVTLNMEKYNFLGISIVGQSNERGDGGIYIGSIMKGGAVAADGRIEPGDMLLQVNEINFENMSNDDAVRVLREIVHKPGPITLTVAKCWDPSPRGCFTLPRSEPIRPIDPAAWVSHTAAMTGTFPAYGMSPSLSTITSTSSSITSSIPDTERLDDFHLSIHSDMAAIVKAMASPESGLEVRDRMWLKITIPNAFIGSDVVDWLYHNVEGFTDRREARKYASNLLKAGFIRHTVNKITFSEQCYYIFGDLCGNMANLSLHDHDGSSGASDQDTLAPLPHPGAAPWPMAFPYQYPPPPHPYNPHPGFPELGYSYGGGSASSQHSEGSRSSGSNRSGSDRRKEKDPKAGDSKSGGSGSESDHTTRSSLRGPRERAPSERSGPAASEHSHRSHHSLASSLRSHHTHPSYGPPGVPPLYGPPMLMMPPPPAAMGPPGAPPGRDLASVPPELTASRQSFRMAMGNPSEFFVDVM
Fully recruited (DVL3 membrane recruitment) ([1]; CK1e-/- cells, exp1): 31 | Non-recruited (DVL3 membrane recruitment) ([1]; CK1e-/- cells, exp1): 33 | Partially recruited (DVL3 membrane recruitment) ([1]; CK1e-/- cells, exp1): 36 | Fully recruited (DVL3 membrane recruitment) ([1]; CK1e-/- cells, exp2): 16 | Non-recruited (DVL3 membrane recruitment) ([1]; CK1e-/- cells, exp2): 44 | Partially recruited (DVL3 membrane recruitment) ([1]; CK1e-/- cells, exp2): 40 | Fully recruited (DVL3 membrane recruitment) ([1]; CK1e-/- cells, exp3): 26 | Non-recruited (DVL3 membrane recruitment) ([1]; CK1e-/- cells, exp3): 50 | Partially recruited (DVL3 membrane recruitment) ([1]; CK1e-/- cells, exp3): 24 | Fully recruited (DVL3 membrane recruitment) ([1]; exp1): 11 | Non-recruited (DVL3 membrane recruitment) ([1]; exp1): 58 | Partially recruited (DVL3 membrane recruitment) ([1]; exp1): 31 | Fully recruited (DVL3 membrane recruitment) ([1]; exp2): 20 | Non-recruited (DVL3 membrane recruitment) ([1]; exp2): 34 | Partially recruited (DVL3 membrane recruitment) ([1]; exp2): 46 | Fully recruited (DVL3 membrane recruitment) ([1]; exp3): 22 | Non-recruited (DVL3 membrane recruitment) ([1]; exp3): 48 | Partially recruited (DVL3 membrane recruitment) ([1]; exp3): 30 | Fully recruited (DVL3 membrane recruitment) [1, 5]: 8 | Non-recruited (DVL3 membrane recruitment) [1, 5]: 65 | Partially recruited (DVL3 membrane recruitment) [1, 5]: 27 | Fully recruited (DVL3 membrane recruitment) [1, 6]: 20 | Non-recruited (DVL3 membrane recruitment) [1, 6]: 51 | Partially recruited (DVL3 membrane recruitment) [1, 6]: 29 | TopFlash in CK1e-/- relative to CK1e wt (= 1) (Wnt/β-catenin pathway; replicate of grid row r4): 0.2303 | TopFlash in CK1e-/- relative to CK1e wt (= 1) (Wnt/β-catenin pathway; replicate of grid row r5): 0.1152 | TopFlash in CK1e-/- relative to CK1e wt (= 1) (Wnt/β-catenin pathway; replicate of grid row r6): 0.24 | TopFlash in CK1e-/- relative to CK1e wt (= 1) (Wnt/β-catenin pathway; replicate of grid row r7): 0.2094
